The target in this experiment is RSV fusion (F) glycoprotein (respiratory syncytial virus) (UniProt P12568). As to the kind of experiment: SPR (Biacore); the partner is not named in the row, RSV F protein is taken from the legend of FIG. 4. On the technique in general: In SPR one partner is held on a chip, and binding of the other changes the refractive index at the surface.

We go through one substance from patent US20150125479A1.

As usually defined, the Kd is the constant that tells how readily two partners part at equilibrium. The low end stands for tighter binding, the high end for weaker binding. “NUMAX™ (motavizumab), MEDI-524 Mab (antibody)” yielded a Kd of 4 pM.
